Source: patent US20220298229A1 (ICHOR BIOLOGICS, published 2022)

Molecular target: T1, Vesicular Stomatitis Virus Glycoprotein (VSV-G) (Vesicular Stomatitis Virus, UniProt P03522 17-511)
T1 construct: whole, on cells
Test: flow cytometry, VSV-G-transfected 293T cells (FIG. 4C)

T1 sequence (P03522 17-511): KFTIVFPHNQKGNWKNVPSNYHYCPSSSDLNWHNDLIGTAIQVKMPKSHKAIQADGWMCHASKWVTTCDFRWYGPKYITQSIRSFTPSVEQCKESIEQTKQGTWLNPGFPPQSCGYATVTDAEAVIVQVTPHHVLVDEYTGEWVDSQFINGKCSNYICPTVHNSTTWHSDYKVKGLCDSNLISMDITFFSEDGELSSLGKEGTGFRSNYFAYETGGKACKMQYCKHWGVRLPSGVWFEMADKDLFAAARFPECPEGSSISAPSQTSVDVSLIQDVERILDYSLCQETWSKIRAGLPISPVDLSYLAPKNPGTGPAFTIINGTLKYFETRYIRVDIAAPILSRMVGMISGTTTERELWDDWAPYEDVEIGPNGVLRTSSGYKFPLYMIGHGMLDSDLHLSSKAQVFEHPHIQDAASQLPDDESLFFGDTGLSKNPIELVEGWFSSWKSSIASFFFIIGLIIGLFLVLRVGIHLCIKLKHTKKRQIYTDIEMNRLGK

B1: monoclonal antibody MIB22 (antibody, V domains shown)
VH: EVQLVQSGAELKKPGSSVKVSCKASGGTFVGYGVSWVRQVPGHGPEWMGGFSPISNTANYAERFQGRVTMIVDGSTSTAYMELRSLRSEDTAIYYCARSCDFWNAYYNNWFDPWGQGTLVTVSS
VL: AQSALTQPASVSGSPGQSITISCTGTSSDFADYNSVSWYQQHPGKAPKLLIFDVNDRPSGVSHRFSGSKSGNTASLTISGLQAEDESDYYCTSYTICNSYVFGTGTKVTVLG
notes: also called MIB22 IgG; first antibody
Q: Does B1 bind?
A: no binding (tested: 1 to 15 µg/ml)
